# Assay results taken from publication PMC3410803.
# System: anti-MPT64 antibody (purified rabbit antibody to recombinant M. tuberculosis H37Rv MPT64) (rabbit)
# Assay: ELISA
# Conditions: 20 mM Hepes pH 7.35, 120 mM KCl, 1 mM CaCl2, 1 mM MgCl2 ([…]
sequence,measurement,value
GGGAGCTCAGAATAAACGCTCAAAAACGCTCAAGAGGCCCGGATCTTCGACATGAGGCCCGGATC [MPT64-A1],binding signal,1.62 OD450
